Test results: publication PMC2386126, “The Mycobacterium tuberculosis Rv2540c DNA sequence encodes a bifunctional chorismate synthase” (BMC Biochemistry, 2008)

Target: the molecule itself
Assay: SEC

B1: chorismate synthase from M. tuberculosis (enzyme)
chain: MLRWITAGESHGRALVAVVEGMVAGVHVTSADIADQLARRRLGYGRGARMTFERDAVTVLSGIRHGSTLGGPIAIEIGNTEWPKWETVMAADPVDPAELADVARNAPLTRPRPGHADYAGMLKYGFDDARPVLERASARETAARVAAGTVARAFLRQALGVEVLSHVISIGASAPYEGPPPRAEDLPAIDASPVRAYDKAAEADMIAQIEAAKKDGDTLGGVVEAVALGLPVGLGSFTSGDHRLDSQLAAAVMGIQAIKGVEIGDGFQTARRRGSRAHDEMYPGPDGVVRSTNRAGGLEGGMTNGQPLRVRAAMKPISTVPRALATVDLATGDEAVAIHQRSDVCAVPAAGVVVETMVALVLARAALEKFGGDSLAETQRNIAAYQRSVADREAPAARVSG
notes: also called MtCS; CS
Q: B1 was tested. Which “stoichiometry N” value did it give?
A: 2
